System: Histone H1

Chain of Pim1 K67A mutant fused to GFP with a myc tag (chain, as listed by the source K67A): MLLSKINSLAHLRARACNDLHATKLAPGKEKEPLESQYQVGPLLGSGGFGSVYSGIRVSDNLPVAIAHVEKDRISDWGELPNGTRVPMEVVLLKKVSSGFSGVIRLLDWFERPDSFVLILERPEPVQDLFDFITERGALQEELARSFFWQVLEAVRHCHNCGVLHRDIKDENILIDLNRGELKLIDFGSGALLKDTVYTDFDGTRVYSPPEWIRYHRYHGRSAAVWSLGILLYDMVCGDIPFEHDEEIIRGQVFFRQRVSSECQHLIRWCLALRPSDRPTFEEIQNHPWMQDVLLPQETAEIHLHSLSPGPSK
Chain of PIM1 D186N mutant fused to GFP with a myc tag (chain, as listed by the source D186N): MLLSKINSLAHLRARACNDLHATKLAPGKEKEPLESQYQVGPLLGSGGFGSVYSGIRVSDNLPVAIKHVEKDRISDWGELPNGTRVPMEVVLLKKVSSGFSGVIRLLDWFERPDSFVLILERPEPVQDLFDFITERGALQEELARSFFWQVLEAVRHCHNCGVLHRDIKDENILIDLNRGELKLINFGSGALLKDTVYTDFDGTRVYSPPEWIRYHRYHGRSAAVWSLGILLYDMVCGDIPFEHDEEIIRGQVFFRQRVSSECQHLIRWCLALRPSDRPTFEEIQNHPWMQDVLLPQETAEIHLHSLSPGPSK
Chain of wild type PIM1 fused to GFP with a myc tag (chain, as listed by the source): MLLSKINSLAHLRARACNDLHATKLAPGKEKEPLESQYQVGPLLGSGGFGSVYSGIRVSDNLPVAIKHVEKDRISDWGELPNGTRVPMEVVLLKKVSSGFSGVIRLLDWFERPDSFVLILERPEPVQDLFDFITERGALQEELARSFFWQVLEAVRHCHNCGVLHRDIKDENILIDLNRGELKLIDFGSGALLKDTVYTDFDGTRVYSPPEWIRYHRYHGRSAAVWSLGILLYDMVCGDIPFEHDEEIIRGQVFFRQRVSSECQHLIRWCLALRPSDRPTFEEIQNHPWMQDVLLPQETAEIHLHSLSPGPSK

PIM1 D186N mutant fused to GFP with a myc tag
kinase activity (immune complex kinase assay, 32P-ATP): Wild type PIM1 exhibited kinase activity, while the mutant PIM1 proteins did not.

Pim1 K67A mutant fused to GFP with a myc tag
kinase activity (immune complex kinase assay, 32P-ATP): Wild type PIM1 exhibited kinase activity, while the mutant PIM1 proteins did not.

wild type PIM1 fused to GFP with a myc tag
kinase activity (immune complex kinase assay, 32P-ATP): Wild type PIM1 exhibited kinase activity, while the mutant PIM1 proteins did not.

Reference: US20040126784
